How the values were obtained:
Type in all cases: cell-based
[1] = system: EBC1-SR#6 cell line (compared with EBC1 parental cell line); assay: EZ-Cytox cell viability assay, 72 hours after treatment; conditions: EBC1-SR#6 vs EBC1 parental cell line, sole treatment, FIG. 2/FIG. 3
Description: To examine whether the quantitative increase of PDGF protein contributes to obtaining resistance in anti-c-Met antibody resistance acquired cell line, EBC1 and EBC1-SR#6 cell lines were treated with PDGFR (PDGF Receptor) TKI (tyrosine kinase inhibitor), then the changes of cell growth inhibition were measured using EZ-Cytox Cell viability assay kit (DaeiLab Service, Seoul, Korea).
For this, each of EBC1 cells and EBC1-SR#6 cells were seeded on 96-well plate at the amount of 5000 (5×10^3) cells. […] Seventy two hours after the treatment, the number of the cells was measured by EZ-Cytox Cell viability assay kit.

EBC1-SR#6 cell lines = assay: CellTiter Glo assay confirming acquired resistance to SAIT301; conditions: resistance-acquired clones; 0-2 ug/ml; 72 hours after the antibody treatment
Description: EBC1 (JCRB 0820) cell lines was treated with SAIT301 for at least 2 months, with increasing the concentration of treated antibody. The concentration of SAIT301 was increased from 1 ug/ml to 10 ug/ml until a resistance is induced. To confirm the acquisition of a resistance to SAIT301, the prepared clones were treated with SAIT301 at the concentration of 0 ug/ml, 0.016 ug/ml, 0.08 ug/ml, 0.4 ug/ml, or 2 ug/ml, and 72 hours after the antibody treatment, the number of the living cells was counted by CellTiter Glo assay (Promega, G7573).
The obtained SAIT301 resistance acquired cell lines were named EBC1-SR#6.

EBC1 parent cells = assay: Responsiveness of parent cells to SAIT301 before inducing resistance
Description: To examine the quantitative change of PDGF when a resistance to an anti-c-Met antibody is induced, SAIT301 resistance acquired EBC1-SR#6 cell lines were prepared by repeatedly treating EBC1 (JCRB 0820) cells with SAIT301. EBC1 parent cells were all responsive to SAIT301, before inducing SAIT301 resistance. The SAIT301 resistance acquired EBC1-SR#6 cell lines were prepared as follows: […]

## CCN(CC)CCCCNc1ncc2cc(-c3cc(OC)cc(OC)c3)c(NC(=O)NC(C)(C)C)nc2n1 [PD173074]
[1]
  chemosensitivity of EBC1-SR#6 cell line compared with EBC1: not changed markedly

B1: SAIT301: anti-c-Met antibody: huAbF46-H4-A1 heavy chain variable region, human IgG2 hinge and constant region, kappa light chain (antibody)
heavy: EVQLVESGGGLVQPGGSLRLSCAASGFTFTDYYMSWVRQAPGKGLEWLGFIRNKANGYTTEYSASVKGRFTISRDNSKNTLYLQMNSLRAEDTAVYYCARDNWFAYWGQGTLVTVSSASTKGPSVFPLAPCSRSTSESTAALGCLVKDYFPEPVTVSWNSGALTSGVHTFPAVLQSSGLYSLSSVVTVPSSNFGTQTYTCNVDHKPSNTKVDKTVERKCCVECPPCPAPPVAGPSVFLFPPKPKDTLMISRTPEVTCVVVDVSHEDPEVQFNWYVDGVEVHNAKTKPREEQFNSTFRVVSVLTVVHQDWLNGKEYKCKVSNKGLPAPIEKTISKTKGQPREPQVYTLPPSREEMTKNQVSLTCLVKGFYPSDIAVEWESNGQPENNYKTTPPMLDSDGSFFLYSKLTVDKSRWQQGNVFSCSVMHEALHNHYTQKSLSLSPGK
light: DIQMTQSPSSLSASVGDRVTITCKSSQSLLASGNQNNYLAWYQQKPGKAPKMLIIWASTRVSGVPSRFSGSGSGTDFTLTISSLQPEDFATYYCQQSYSRPYTFGQGTKVEIKRTVAAPSVFIFPPSDEQLKSGTASVVCLLNNFYPREAKVQWKVDNALQSGNSQESVTEQDSKDSTYSLSSTLTLSKADYEKHKVYACEVTHQGLSSPVTKSFNRGEC
EBC1-SR#6 cell lines
  effect of antibody on number of living cells: no effect
EBC1 parent cells
  responsiveness of cells to antibody: responsive

Reference: patent US9869668B2, “PDGF as a biomarker for predicting resistance or effect of c-Met targeting drugs” (SAMSUNG ELECTRONICS CO., LTD., priority 2014, dated 2018)
